First the molecules themselves.
T1: rat DPEP3 ECD with histidine tag (rat, UniProt Q5U2X4 36-459, limits assumed)
T1 construct: also called rDPEP3-His; ratDPEP3-His; not shown: histidine tag
T1 sequence: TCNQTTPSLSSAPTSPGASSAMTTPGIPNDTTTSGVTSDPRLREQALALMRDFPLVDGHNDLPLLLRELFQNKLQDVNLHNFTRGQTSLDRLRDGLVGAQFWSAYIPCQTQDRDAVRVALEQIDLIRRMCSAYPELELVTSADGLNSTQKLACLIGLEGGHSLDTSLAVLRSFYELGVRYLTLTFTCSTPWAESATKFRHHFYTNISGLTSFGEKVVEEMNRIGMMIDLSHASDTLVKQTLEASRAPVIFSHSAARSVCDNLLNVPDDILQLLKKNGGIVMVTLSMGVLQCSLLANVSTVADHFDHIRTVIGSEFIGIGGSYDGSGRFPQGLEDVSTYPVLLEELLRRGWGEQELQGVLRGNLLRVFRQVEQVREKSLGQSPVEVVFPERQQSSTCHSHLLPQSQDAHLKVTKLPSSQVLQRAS

T2: cDPEP3 (Macaca fascicularis, UniProt Q4R7M2)
T2 construct: extracellular domain; also called cynomolgus DPEP3-His; cynomolgus DPEP3 ECD with histidine tag
T2 sequence (single chain, looked up): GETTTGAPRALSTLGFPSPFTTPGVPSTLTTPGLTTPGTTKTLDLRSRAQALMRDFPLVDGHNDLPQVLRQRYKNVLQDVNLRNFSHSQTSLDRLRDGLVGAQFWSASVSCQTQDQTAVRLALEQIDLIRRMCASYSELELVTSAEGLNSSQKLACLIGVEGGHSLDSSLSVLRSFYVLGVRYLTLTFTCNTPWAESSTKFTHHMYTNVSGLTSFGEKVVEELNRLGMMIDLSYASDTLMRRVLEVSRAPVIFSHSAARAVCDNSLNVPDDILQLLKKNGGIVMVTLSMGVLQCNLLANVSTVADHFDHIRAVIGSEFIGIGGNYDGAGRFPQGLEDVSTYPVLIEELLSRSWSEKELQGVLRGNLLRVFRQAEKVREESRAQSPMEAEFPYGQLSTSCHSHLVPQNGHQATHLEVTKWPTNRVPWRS

T3: mDPEP3 (limits assumed)
T3 construct: also called mouse DPEP3-His; mouse DPEP3 ECD with histidine tag
T3 single chain: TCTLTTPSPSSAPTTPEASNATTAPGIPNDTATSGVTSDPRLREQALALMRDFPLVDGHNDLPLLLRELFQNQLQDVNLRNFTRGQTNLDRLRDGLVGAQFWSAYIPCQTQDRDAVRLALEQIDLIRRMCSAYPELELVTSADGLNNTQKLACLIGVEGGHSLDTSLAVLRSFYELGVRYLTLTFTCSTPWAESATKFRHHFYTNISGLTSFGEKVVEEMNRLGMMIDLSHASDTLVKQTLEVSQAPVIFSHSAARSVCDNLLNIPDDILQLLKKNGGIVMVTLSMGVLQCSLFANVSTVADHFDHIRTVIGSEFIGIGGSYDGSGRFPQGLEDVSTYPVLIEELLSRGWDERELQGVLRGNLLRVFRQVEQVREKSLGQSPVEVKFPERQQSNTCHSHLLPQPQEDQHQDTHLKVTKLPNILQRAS

T4: hDPEP3-ECD-His (human, UniProt Q9H4B8 36-463)
T4 construct: also called hDPEP3-His; monomeric hDPEP3-His antigen; not shown: histidine tag
T4 sequence: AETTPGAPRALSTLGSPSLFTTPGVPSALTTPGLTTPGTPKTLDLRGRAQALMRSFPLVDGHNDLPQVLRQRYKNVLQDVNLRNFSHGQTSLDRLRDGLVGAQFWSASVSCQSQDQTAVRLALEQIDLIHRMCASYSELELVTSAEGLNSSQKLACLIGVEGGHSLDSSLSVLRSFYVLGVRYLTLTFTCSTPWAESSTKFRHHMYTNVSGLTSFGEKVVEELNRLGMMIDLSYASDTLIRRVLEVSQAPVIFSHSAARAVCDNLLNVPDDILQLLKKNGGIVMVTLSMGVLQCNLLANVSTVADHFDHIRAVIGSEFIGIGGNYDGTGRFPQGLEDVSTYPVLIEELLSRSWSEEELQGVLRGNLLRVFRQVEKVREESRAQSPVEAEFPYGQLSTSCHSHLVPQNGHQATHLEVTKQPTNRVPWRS

B1: SC34.24 (antibody, mouse IgG1, V domains shown)
VH: QVQLQQSGPELARPGASVKLSCKASEYTFTSYAITWVKQRAGQGLEWIGEIYPGSGDTYYNEKFKGKATLTTDKSSSTAYMQLSSLTSEDSAVYFCARVHDYGSWFPYWGQGTLVTVSA
VL: DIVMSQSPSSLAVSVGEKVTMNCKSSQSLLYSRYQKNYLAWYQQKPGQSPKLLIYWASTRESGVPDRFTGSGSGTDFTLTISSVKAEDLAVYYCQQYYRYPLTFGAGTKLELK
B2: SC34.16 (antibody, mouse IgG1, V domains shown)
VH: B1 VH with P9T, K38R, A41T, D57N, K63T, T72S, Y80S
VL: B1 VL with N22S, A57S, V91D
B3: SC34.89 (antibody, mouse IgG1, V domains shown)
VH: B1 VH with P9A, E26G, T35S, A41T, G42R, T58I, Y59H, N61S, E62G, T69S
VL: DIVMSQSPSSLGVSVGEKVTLSCKSSQSLFNKRDQKNYLAWYQQKPGQSPKLLIYWASTRESGVPDRFTGSGSGTDFILTIRSVKAEDLAVYYCHQSYRYPLTFGAGTKLELK
B4: SC34.13 (antibody, mouse IgG2a, V domains shown)
VH: B1 VH with L4V, P9A, E26G, T35S, A41T, D57N, E62G, H100D
VL: B1 VL with M21L, N22S, K51R, L53V, A90V, A106S
B5: SC34.58 mouse anti-DPEP3 antibody (antibody, V domains shown)
VH: B1 VH with P9A, E26G, A33G, I34V, T35N, A41T, S55R, T58V, E62D, K63N
VL: B1 VL with N22S, Y34N, Q95H, Y97H, K113R
notes: Mouse hybridoma antibody
B6: SC34.25 (antibody, mouse IgG1, V domains shown)
VH: B1 VH with P9V, L20V, E26G, T35S, A41T, D57E, Q82H, F95L, A97G, H100N
VL: B1 VL with V15G, N22S, L39V
B7: SC34.19 (antibody, mouse IgG1, V domains shown)
VH: B1 VH with P9A, E26G, A41T, D57N, Y59F, Y60F, K67R
VL: B1 VL with S10A, V19I, N22S, S25C, Y31H, Y34D, S82N, S83T, Y97H
B8: SC34.27 (antibody, mouse IgG1, V domains shown)
VH: B1 VH with P9A, E26G, T30R, A33G, T35N, A41T, S55R, T58V, K63N
VL: B1 VL with N22S, Y34N, S82N, Q95H
B9: SC34.86 (antibody, mouse IgG1, V domains shown)
VH: B1 VH with P9A, E26G, A33T, A41T, D57N
VL: B1 VL with I2T, M21L, N22S, I54L, Y97H
B10: SC34.87 (antibody, mouse IgG2a, V domains shown)
VH: QVQLQQSGAELAKPGASVKMSCKASGYTFTSYWMLWVKQRPGQGLEWIGYIDPRNGYTEYNQKFKDKATLTADKSSSTAYMQLSSLTSEDSAVYYCTRGGNVAMDYWGQGTSVTVSS
VL: DIVMSQSPSSLAVSAGEKVTMSCKSSQSLLNSRTRKNYLAWYQQKPGQSPKLLIYWASTRESGVPGRFTGSGSGTDFTLTISSVQAEDLAVYYCKQSYNLWTFGGGTKLEIK

Numbering of substitutions follows the chain as printed. Several values for one entry are separate records, joined by “and”; a condition that tells them apart may be missing. Equal entries are not always repeated.

T5 sequence (Q9H4A9 33-463): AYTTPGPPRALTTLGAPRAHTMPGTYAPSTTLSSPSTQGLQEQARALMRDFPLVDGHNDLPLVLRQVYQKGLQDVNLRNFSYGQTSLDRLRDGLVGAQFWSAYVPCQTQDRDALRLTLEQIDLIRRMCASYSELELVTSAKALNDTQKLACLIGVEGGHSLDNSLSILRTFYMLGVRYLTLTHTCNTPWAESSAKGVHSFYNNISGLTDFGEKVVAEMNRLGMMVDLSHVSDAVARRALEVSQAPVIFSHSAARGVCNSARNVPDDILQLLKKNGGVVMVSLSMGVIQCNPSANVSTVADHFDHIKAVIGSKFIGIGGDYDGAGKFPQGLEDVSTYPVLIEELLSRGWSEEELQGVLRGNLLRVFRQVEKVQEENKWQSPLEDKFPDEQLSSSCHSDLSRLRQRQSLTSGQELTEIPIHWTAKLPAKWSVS

One assay has as its target T1, rat DPEP3 ECD with histidine tag. Kind of assay: ELISA, coated antigen. How it is done:
(§1) The anti-DPEP3 antibodies were screened by ELISA for cross-reactivity with mouse, rat and cynomolgus DPEP3 and for cross reactivity to hDPEP2, the closest DPEP3 family member. ELISA was conducted as follows. Plates were coated with purified mouse, rat or cynomolgus DPEP3-His or hDPEP2-His at 0.3 μg/mL in 0.2 M carbonate-bicarbonate buffer, pH 9.4 overnight at 4° C. The protein solution was removed and the wells were blocked with 1% (w/v) BSA in PBS (PBSA), 100 μL/well for 1 hour at 37° C. Anti-DPEP3 antibody or a mouse isotype control antibody was then added at 1 μg/mL in 50 μL PBSA for 1 hour at room temperature. After washing with water, 50 μL/well HRP-labeled goat anti-mouse IgG antibody diluted 1:10,000 in PBSA was added for 30 min at room temperature. The plates were washed and developed by the addition of 40 μL/well of the TMB substrate solution (Thermo Scientific) at room temperature. An equal volume of 0.2 M H₂SO₄ was added to stop substrate development. The samples were then analyzed by spectrophotometer at OD 450. […] The cross reactivity results for exemplary DPEP3-specific antibodies can be seen in FIG. 4.
As for B1, the binding result was “no binding (tested: 1 ug/mL)”.
As to B2, the binding result was “no binding (tested: 1 ug/mL)”.
Still for that read-out and setting: with B3 the entry was “no binding (tested: 1 ug/mL)”; with B4, “no binding (tested: 1 ug/mL)”.
The same measure, in the same setting: with B5 the entry was “no binding (tested: 1 ug/mL)”.
With B6, the binding result was “no binding (tested: 1 ug/mL)”.
With B7, the binding result was “no binding (tested: 1 ug/mL)”.
For B8, the binding result is recorded as “no binding (tested: 1 ug/mL)”.
On to B9, for which the binding result is listed as “no binding (tested: 1 ug/mL)”.

A further assay addresses T5, hDPEP2 ECD with histidine tag (human, UniProt Q9H4A9 33-463).
T5 construct: also called hDPEP2-His; not shown: histidine tag
Kind of assay: ELISA, coated antigen. How it is done:
as §1
For B1, the binding result is “no binding (tested: 1 ug/mL)”.
Take B2: the binding result is recorded as “no binding (tested: 1 ug/mL)”.
With B3, the binding result is reported as “no binding (tested: 1 ug/mL)”.
Consider B4, for which the binding result is on record as “no binding (tested: 1 ug/mL)”.
Consider B5, for which the binding result is “no binding (tested: 1 ug/mL)”.
On the same count and under the same terms, with B6 the entry was “no binding (tested: 1 ug/mL)”.
Regarding B7, the binding result is reported as “no binding (tested: 1 ug/mL)”.
On to B8, for which the binding result is “no binding (tested: 1 ug/mL)”.
As for B9, the binding result is “no binding (tested: 1 ug/mL)”.
For the molecule B10, the binding result is “no binding (tested: 1 ug/mL)”.

Another assay has as its target T2, cDPEP3. Kind of assay: ELISA, coated antigen. The method, then: as §1
As to B10, the binding result is on record as “no binding (tested: 1 ug/mL)”.

A further assay deals with T3, mDPEP3. Kind of assay: ELISA, coated antigen. The method, then: as §1
For the molecule B1, the binding result was “no binding (tested: 1 ug/mL)”.
For B2, the binding result was “no binding (tested: 1 ug/mL)”.
Still for that read-out and setting: with B3 the entry was “no binding (tested: 1 ug/mL)”; with B4, “no binding (tested: 1 ug/mL)”; with B5, “no binding (tested: 1 ug/mL)”.
Turning to B6, the binding result is on record as “no binding (tested: 1 ug/mL)”.
Turning to B7, the binding result is reported as “no binding (tested: 1 ug/mL)”.
The same measure, in the same setting: with B8 the entry was “no binding (tested: 1 ug/mL)”; with B9, “no binding (tested: 1 ug/mL)”.
The same measure, in the same setting: with B10 the entry was “no binding (tested: 1 ug/mL)”.

In the next assay the target is T4, hDPEP3-ECD-His. Kind of assay: BLI ForteBio RED, 200 nM hDPEP3-His, estimated grade. How it is done:
The affinity of the antibodies for hDPEP3-His was qualitatively determined from kinetics curves generated with a ForteBio RED as follows. Anti-DPEP3 antibodies were immobilized onto anti-mouse Fc capture biosensors with a contact time of 3 mins. and a flow rate of 1000 rpm. The captured antibody loading from baseline was constant at 0.3-1 units. Following antibody capture and 30 second baseline, the biosensors were dipped into a 200 nM solution of hDPEP3-His for a 4 min. association phase followed by a 3 min. dissociation phase at a shaking rate of 1000 rpm. The biosensors were regenerated by dipping into 10 mM glycine, pH 1.7 following each cycle. The data was processed by subtracting a control mouse IgG surface response from the specific antibody response and data was truncated to the association and dissociation phase. The association and dissociation curves were used to qualitatively estimate the affinities of selected antibodies. […] A designation of “ND” means that the estimated KD was not determined.
Turning to B1, the Kd is below 5 nM.
With B2, the equilibrium dissociation constant (Kd) was below 5 nM.
For the molecule B3, the Kd was below 5 nM.
Still for that read-out and setting: with B4 the figure was ≥ 5 nM and ≤ 10 nM; with B5, below 5 nM; with B6, below 5 nM.
With B7, the Kd is ≥ 5 nM and ≤ 10 nM.
Still for that read-out and setting: with B8 the figure was below 5 nM; with B9, below 5 nM.
Regarding B10, the Kd is ≥ 5 nM and ≤ 10 nM.

The record behind these values is US20170029530A1 (AbbVie / Abbott, published 2017).
